Experimental data: doi:10.1101/2022.02.02.478874 (bioRxiv, 2022)

T1: ^mChSpindly^ΔRV (human, UniProt Q96EA4 1-605, ΔRV (residues R154-V155))
T1 sequence: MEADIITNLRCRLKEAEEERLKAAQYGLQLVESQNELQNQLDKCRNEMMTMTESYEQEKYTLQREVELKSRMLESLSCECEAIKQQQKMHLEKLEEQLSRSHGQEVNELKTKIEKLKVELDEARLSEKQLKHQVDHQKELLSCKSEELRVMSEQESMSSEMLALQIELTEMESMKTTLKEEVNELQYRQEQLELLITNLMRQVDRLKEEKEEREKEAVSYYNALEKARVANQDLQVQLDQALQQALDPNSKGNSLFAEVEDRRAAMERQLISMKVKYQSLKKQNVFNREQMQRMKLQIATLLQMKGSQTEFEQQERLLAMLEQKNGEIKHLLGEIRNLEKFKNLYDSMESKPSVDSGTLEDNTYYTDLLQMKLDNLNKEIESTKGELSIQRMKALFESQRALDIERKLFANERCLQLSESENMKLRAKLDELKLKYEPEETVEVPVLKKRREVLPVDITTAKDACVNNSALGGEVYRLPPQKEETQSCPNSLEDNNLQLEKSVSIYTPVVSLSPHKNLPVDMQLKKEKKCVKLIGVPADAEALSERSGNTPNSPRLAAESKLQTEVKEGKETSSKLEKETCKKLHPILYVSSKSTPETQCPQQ

B1: ^mChSpindly^CC2* (R295E-K297E) (natural protein)
chain: MEADIITNLRCRLKEAEEERLKAAQYGLQLVESQNELQNQLDKCRNEMMTMTESYEQEKYTLQREVELKSRMLESLSCECEAIKQQQKMHLEKLEEQLSRSHGQEVNELKTKIEKLKVELDEARLSEKQLKHQVDHQKELLSCKSEELRVMSERVQESMSSEMLALQIELTEMESMKTTLKEEVNELQYRQEQLELLITNLMRQVDRLKEEKEEREKEAVSYYNALEKARVANQDLQVQLDQALQQALDPNSKGNSLFAEVEDRRAAMERQLISMKVKYQSLKKQNVFNREQMQEMELQIATLLQMKGSQTEFEQQERLLAMLEQKNGEIKHLLGEIRNLEKFKNLYDSMESKPSVDSGTLEDNTYYTDLLQMKLDNLNKEIESTKGELSIQRMKALFESQRALDIERKLFANERCLQLSESENMKLRAKLDELKLKYEPEETVEVPVLKKRREVLPVDITTAKDACVNNSALGGEVYRLPPQKEETQSCPNSLEDNNLQLEKSVSIYTPVVSLSPHKNLPVDMQLKKEKKCVKLIGVPADAEALSERSGNTPNSPRLAAESKLQTEVKEGKETSSKLEKETCKKLHPILYVSSKSTPETQCPQQ
B2: GST-tagged LIC2 (Dynein light intermediate chain 2) (natural protein)
chain: MAPVGVEKKLLLGPNGPAVAAAGDLTSEEEEGQSLWSSILSEVSTRARSKLPSGKNILVFGEDGSGKTTLMTKLQGAEHGKKGRGLEYLYLSVHDEDRDDHTRCNVWILDGDLYHKGLLKFAVSAESLPETLVIFVADMSRPWTVMESLQKWASVLREHIDKMKIPPEKMRELERKFVKDFQDYMEPEEGCQGSPQRRGPLTSGSDEENVALPLGDNVLTHNLGIPVLVVCTKCDAVSVLEKEHDYRDEHLDFIQSHLRRFCLQYGAALIYTSVKEEKNLDLLYKYIVHKTYGFHFTTPALVVEKDAVFIPAGWDNEKKIAILHENFTTVKPEDAYEDFIVKPPVRKLVHDKELAAEDEQVFLMKQQSLLAKQPATPTRASESPARGPSGSPRTQGRGGPASVPSSSPGTSVKKPDPNIKNNAASEGVLASFFNSLLSKKTGSPGSPGAGGVQSTAKKSGQKTVLSNVQEELDRMTRKPDSMVTNSSTENEA

Key:
[1] = target: ROD-Zwilch-ZW10 (RZZ) complex with mCherry on ROD (UniProt P50748;Q9H900;O43264); assay: SEC
Chain of ROD-Zwilch-ZW10 (RZZ) complex with mCherry on ROD (P50748 whole entry, chain 1 of 3): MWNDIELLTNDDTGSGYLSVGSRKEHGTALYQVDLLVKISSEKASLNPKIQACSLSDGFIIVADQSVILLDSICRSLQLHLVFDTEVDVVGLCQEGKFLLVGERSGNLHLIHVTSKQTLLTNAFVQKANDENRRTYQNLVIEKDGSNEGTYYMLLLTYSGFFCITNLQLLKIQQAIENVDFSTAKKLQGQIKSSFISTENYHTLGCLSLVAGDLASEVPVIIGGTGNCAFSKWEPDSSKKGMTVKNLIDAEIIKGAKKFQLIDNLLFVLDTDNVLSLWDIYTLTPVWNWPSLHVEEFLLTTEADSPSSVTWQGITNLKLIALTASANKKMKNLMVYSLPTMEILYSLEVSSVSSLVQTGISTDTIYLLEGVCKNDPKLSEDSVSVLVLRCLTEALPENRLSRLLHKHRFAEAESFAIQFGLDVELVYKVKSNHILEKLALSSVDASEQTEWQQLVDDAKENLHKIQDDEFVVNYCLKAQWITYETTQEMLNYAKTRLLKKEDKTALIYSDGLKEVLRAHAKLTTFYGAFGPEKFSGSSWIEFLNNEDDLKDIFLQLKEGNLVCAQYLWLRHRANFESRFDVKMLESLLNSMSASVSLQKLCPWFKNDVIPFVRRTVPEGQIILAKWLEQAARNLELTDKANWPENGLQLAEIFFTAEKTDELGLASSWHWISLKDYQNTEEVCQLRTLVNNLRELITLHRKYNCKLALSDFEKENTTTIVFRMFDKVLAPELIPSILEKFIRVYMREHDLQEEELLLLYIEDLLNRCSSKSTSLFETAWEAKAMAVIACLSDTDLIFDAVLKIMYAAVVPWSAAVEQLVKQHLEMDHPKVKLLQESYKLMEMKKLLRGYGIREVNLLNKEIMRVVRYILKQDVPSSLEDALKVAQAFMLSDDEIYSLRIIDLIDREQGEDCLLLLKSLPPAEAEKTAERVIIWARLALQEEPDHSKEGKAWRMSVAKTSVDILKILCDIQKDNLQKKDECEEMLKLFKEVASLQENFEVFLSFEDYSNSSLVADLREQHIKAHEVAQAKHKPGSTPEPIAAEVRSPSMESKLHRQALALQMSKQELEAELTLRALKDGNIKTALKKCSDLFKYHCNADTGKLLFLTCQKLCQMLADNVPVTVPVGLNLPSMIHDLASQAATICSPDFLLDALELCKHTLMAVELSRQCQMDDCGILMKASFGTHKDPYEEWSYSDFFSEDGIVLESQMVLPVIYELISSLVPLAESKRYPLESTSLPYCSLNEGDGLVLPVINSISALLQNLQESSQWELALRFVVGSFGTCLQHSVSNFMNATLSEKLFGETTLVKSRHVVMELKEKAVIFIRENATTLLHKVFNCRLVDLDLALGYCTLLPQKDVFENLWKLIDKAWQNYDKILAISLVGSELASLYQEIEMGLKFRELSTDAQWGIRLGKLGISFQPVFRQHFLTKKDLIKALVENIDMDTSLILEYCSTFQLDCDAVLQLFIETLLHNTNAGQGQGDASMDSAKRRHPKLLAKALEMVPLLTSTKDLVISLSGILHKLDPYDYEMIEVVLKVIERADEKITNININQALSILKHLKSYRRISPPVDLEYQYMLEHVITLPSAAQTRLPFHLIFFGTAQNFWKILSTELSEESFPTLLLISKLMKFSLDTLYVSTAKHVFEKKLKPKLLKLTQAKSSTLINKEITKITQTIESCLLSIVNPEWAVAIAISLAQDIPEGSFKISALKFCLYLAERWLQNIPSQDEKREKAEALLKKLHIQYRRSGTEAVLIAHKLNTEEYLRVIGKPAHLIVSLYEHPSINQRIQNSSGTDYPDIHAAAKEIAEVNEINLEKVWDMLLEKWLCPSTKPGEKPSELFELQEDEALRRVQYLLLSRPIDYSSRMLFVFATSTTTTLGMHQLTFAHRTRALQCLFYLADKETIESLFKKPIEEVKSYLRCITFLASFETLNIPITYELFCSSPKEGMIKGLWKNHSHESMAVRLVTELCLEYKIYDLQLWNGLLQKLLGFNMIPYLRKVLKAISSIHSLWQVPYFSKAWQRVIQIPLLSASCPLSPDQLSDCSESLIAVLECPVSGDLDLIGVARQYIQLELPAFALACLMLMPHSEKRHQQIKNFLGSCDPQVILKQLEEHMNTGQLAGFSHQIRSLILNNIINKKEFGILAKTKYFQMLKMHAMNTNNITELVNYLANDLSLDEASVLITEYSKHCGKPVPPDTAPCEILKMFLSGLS
Chain of ROD-Zwilch-ZW10 (RZZ) complex with mCherry on ROD (Q9H900 whole entry, chain 2 of 3): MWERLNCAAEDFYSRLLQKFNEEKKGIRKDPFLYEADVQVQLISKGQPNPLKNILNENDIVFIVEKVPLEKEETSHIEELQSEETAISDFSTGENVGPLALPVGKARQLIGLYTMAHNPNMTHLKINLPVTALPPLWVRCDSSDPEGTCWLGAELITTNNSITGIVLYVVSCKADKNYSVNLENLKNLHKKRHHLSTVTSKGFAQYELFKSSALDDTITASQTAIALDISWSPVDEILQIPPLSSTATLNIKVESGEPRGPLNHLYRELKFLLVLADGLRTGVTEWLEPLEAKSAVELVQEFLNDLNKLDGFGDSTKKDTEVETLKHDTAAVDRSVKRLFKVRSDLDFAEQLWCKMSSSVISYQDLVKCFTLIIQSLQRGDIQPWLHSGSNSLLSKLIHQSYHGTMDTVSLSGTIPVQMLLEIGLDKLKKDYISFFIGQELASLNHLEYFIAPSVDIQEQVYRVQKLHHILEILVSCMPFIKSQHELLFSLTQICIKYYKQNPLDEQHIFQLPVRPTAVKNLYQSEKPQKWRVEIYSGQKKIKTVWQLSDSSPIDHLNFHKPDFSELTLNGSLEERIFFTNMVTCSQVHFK
Chain of ROD-Zwilch-ZW10 (RZZ) complex with mCherry on ROD (O43264 whole entry, chain 3 of 3): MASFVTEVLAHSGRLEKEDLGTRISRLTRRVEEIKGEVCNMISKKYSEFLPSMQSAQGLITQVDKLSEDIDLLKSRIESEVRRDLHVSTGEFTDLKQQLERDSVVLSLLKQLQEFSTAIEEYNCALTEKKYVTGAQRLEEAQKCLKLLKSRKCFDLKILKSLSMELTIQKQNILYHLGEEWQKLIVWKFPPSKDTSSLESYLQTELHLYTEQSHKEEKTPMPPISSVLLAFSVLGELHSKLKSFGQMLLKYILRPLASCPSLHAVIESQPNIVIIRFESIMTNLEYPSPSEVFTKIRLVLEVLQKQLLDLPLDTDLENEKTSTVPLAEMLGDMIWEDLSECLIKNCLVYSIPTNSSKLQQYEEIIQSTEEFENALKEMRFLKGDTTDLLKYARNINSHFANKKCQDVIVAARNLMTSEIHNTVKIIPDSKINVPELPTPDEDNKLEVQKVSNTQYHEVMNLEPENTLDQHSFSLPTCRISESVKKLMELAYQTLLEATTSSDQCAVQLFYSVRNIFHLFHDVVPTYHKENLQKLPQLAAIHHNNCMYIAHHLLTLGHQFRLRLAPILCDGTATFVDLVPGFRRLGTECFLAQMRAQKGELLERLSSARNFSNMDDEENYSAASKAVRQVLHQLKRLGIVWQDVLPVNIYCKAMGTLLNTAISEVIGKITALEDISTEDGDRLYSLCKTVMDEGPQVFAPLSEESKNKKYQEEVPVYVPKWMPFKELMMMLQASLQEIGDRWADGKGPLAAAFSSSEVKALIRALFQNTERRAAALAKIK

mass photometry = target: the molecule itself; assay: mass photometry
[2] = target: B1; assay: pull-down
^mChSpindly^ΔRV = target: T1, ^mChSpindly^ΔRV; assay: pull-down

Row | binding result [1] | binding result [2] | binding result (^mChSpindly^ΔRV) | Binder | stoichiometry N (mass photometry)
1 | binds | – | – | B1 | 2
2 | – | binds | binds | B2 | –
